Data on 1 molecule can be found in US20250283063, “NOVEL CRISPR-CAS12I SYSTEMS AND USES THEREOF” (HUIDAGENE THERAPEUTICS (SINGAPORE) PTE. LTD., published 2025).

The target of one series is T1, xCas12i-E875R (E875R).
T1 chain: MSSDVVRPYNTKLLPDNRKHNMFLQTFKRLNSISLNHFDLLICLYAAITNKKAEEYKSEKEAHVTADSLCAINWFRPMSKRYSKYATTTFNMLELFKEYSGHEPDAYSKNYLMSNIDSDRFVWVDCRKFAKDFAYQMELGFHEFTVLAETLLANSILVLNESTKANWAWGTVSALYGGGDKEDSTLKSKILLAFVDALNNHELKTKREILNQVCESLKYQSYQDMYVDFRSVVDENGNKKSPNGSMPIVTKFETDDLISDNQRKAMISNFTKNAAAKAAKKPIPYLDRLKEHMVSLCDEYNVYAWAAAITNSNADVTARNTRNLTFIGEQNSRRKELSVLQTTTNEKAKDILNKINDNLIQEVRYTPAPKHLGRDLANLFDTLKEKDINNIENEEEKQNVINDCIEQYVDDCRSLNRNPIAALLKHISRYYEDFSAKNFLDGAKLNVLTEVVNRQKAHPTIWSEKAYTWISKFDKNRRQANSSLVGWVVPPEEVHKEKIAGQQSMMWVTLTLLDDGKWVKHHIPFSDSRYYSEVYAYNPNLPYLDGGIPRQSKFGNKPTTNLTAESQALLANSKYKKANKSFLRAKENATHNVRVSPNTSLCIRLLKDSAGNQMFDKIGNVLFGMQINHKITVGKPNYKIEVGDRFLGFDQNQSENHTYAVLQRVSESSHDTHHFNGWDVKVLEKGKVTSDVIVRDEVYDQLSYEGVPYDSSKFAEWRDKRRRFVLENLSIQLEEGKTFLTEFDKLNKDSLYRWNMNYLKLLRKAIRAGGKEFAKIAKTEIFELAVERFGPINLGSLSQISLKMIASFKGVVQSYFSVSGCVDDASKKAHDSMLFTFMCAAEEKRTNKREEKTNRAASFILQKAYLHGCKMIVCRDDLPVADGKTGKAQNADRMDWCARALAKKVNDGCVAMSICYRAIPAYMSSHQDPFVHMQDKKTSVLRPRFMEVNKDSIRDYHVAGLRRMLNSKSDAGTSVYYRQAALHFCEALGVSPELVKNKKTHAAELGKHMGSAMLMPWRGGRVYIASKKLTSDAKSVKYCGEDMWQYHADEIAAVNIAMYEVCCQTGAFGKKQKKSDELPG
Nature of the series: cell_activity; RuvC catalytic residue; cleavage readout. The settings on record: tags: NLS. From the text: (§1) To vary xCas12i's dsDNA cleavage activity and/or expand its scope of PAM site recognition, the applicant engineered xCas12i protein via mutagenesis and screened for mutants with various dsDNA cleavage activity and broader PAM using a dual plasmid fluorescent reporter system similar to the dual plasmid fluorescent reporter system in Example 1, except that the EGxxxxFP-targeting guide RNA (SEQ ID NO: 51; “crON/crRNA On-target”) coding sequence operably linked to U6 promoter was not located on the expression plasmid together with the xCas12i (or its mutant) coding sequence (SEQ ID NO: 31) but located on the reporter plasmid together with the BFP-P2A-EGxxxxFP coding sequence (SEQ ID NO: 41) (referring to “On-Target Reporter” in FIG. 1B). […] The applicant then individually transfected the expression plasmid and the reporter plasmid into HEK293T cells and analyzed them by FACS (FIG. 1B). […]

A further series deals with T2, xCas12i-D892R (v4.3) (D892R).
T2 chain: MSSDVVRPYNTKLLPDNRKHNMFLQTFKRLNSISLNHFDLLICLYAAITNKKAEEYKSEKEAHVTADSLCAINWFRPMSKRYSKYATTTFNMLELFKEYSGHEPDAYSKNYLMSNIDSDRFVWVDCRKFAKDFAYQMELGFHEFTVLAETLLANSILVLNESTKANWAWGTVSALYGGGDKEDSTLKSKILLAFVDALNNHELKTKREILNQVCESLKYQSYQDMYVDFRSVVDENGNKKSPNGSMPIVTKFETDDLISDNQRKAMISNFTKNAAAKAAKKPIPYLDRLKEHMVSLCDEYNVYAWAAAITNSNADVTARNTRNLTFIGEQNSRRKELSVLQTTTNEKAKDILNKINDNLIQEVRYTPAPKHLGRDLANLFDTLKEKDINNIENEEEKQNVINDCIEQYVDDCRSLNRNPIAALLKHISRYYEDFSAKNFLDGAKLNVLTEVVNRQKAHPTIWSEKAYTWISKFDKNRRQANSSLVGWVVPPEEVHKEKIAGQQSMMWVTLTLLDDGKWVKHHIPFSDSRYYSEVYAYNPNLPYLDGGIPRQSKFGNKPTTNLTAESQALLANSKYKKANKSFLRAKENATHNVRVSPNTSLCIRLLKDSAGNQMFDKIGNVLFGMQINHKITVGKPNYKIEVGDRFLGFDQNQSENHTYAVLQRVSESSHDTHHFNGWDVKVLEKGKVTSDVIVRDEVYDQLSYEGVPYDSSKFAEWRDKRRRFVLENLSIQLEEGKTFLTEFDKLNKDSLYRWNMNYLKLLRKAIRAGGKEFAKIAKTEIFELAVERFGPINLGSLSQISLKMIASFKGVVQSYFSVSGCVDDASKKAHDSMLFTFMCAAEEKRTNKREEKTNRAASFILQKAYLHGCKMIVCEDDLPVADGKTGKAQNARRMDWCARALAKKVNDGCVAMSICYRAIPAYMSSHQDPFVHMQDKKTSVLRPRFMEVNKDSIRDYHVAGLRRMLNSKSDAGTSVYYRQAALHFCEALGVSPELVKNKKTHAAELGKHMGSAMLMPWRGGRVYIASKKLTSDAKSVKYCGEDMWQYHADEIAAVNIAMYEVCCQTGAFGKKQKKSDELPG
As to the kind of experiment: cell_activity; HEK293T EGFP reporter. Conditions: tags: NLS.
Source text: as §1

B1: crEGFP DR-T1 ; EGxxxxFP reporter target (ssRNA ; dsDNA)
RNA: AUGACUCAGAAAUGUGUCCCCAGUUGACACCCAUUACAGUAGGAGCAUAC
DNA 1: GGATCCGTGTCTTTCCCATTACAGTAGGAGCATACGGGAGACAAGCTTTG
DNA 2: CAAAGCTTGTCTCCCGTATGCTCCTACTGTAATGGGAAAGACACGGATCC
Consider B1, for which the figures for the binding signal with xCas12i-E875R and in the series with xCas12i-D892R (v4.3) were 0.1 relative to WT and 1.42 relative to WT, respectively.
